Consider one substance from PMC12396215.

For assay [1], the target named is extracellular domain of EpCAM (EpCAM ECD) (UniProt P16422). Kind of assay: other fluorescence titration; Kd of the probe for EpCAM ECD calculated from the increase of SiP fluorescence (Figure S10).
The target is the same in assay [2]. Kind of assay: fluorescence increase of the DARPin-SiP conjugate on adding the antigen (plate reader); conjugate 500 nM (not pretreated with DTT), EpCAM ECD 1 uM; fold activation = fluorescence at 31 min divided by that just before EpCAM ECD.
Assay [3] shares this target. The assay is described as follows: fluorescence increase of the DARPin-SiP conjugate on adding the antigen (plate reader); probe pretreated with DTT; probe 500 nM, EpCAM ECD 1 uM.

A value given as a limit tells only on which side of the number the result lay.

Sequence of UniProt P16422 (P16422 24-265): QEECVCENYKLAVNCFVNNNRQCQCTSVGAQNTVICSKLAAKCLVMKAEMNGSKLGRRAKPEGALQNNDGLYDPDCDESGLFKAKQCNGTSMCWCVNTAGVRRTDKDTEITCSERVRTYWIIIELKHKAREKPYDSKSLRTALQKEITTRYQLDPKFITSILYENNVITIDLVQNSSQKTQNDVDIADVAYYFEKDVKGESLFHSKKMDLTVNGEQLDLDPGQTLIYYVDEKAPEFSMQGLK

As a reminder, the Kd is a measure of binding affinity in units of concentration. In the case of “Ec1 K152C-5-Gly SiP conjugate (designed binder)”, the Kd in assay [1] was 238 nM. Also, in assay [2], the fold increase of SiP fluorescence on adding EpCAM ECD amounted to 7 fold. In addition, in assay [3], the fold activation of SiP fluorescence on adding EpCAM ECD was more than 12 fold.
